Measured values: the supplement of paper PMC9112550, “Optimization of the antimicrobial peptide Bac7 by deep mutational scanning” (BMC Biology, 2022)

Tested on: Escherichia coli TOP10
Assay: shrunken log2 fold change of peptide-encoding DNA abundance (4.5 h post-induction vs induction); higher = less antimicrobial activity (less host growth inhibition)
Settings: time post-induction: 4.5 h; library: site-saturation at positions 5, 18, 19, 20
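Note: peptides expressed intracellularly from a pBAD plasmid library in pooled LB shake-flask culture, induced with 0.3% L-arabinose, DNA abundance read by NGS, three biological replicates, DESeq2 with apeglm shrinkage.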

In the case of RRIRKRPPRLPRPRPRPGHPPRP, the “shrunken log2 fold change” value is reported as 0.943.

With RRIRKRPPRLPRPRPRPGISPRP the “shrunken log2 fold change” value was 0.249.

In the case of RRIRKRPPRLPRPRPRPGKFPRP, the “shrunken log2 fold change” value is reported as -0.174.

In the case of RRIRKRPPRLPRPRPRPGLCPRP, the “shrunken log2 fold change” value is reported as 0.168.

For RRIRKRPPRLPRPRPRPGLYPRP, the “shrunken log2 fold change” value was 0.324.

For RRIRKRPPRLPRPRPRPGPGPRP, the “shrunken log2 fold change” value was 0.493.

With RRIRKRPPRLPRPRPRPGPIPRP the “shrunken log2 fold change” value was 0.204.

With RRIRKRPPRLPRPRPRPGQEPRP the “shrunken log2 fold change” value was 0.053.

With RRIRKRPPRLPRPRPRPGQNPRP the “shrunken log2 fold change” value was 0.0264.

With RRIRKRPPRLPRPRPRPGRFPRP the “shrunken log2 fold change” value was 0.227.

RRIRKRPPRLPRPRPRPGRSPRP was tested, and the “shrunken log2 fold change” value was 0.256.

In the case of RRIRKRPPRLPRPRPRPGRYPRP, the “shrunken log2 fold change” value is reported as 0.426.

For RRIRKRPPRLPRPRPRPGSEPRP, the “shrunken log2 fold change” value was 0.66.

In the case of RRIRKRPPRLPRPRPRPGSQPRP, the “shrunken log2 fold change” value is reported as 0.359.

With RRIRKRPPRLPRPRPRPGTLPRP the “shrunken log2 fold change” value was 0.0624.

In the case of RRIRKRPPRLPRPRPRPGVKPRP, the “shrunken log2 fold change” value is reported as 0.0127.

With RRIRKRPPRLPRPRPRPGWGPRP the “shrunken log2 fold change” value was 0.432.

RRIRKRPPRLPRPRPRPGYPPRP was tested, and the “shrunken log2 fold change” value was 0.0931.

For RRIRKRPPRLPRPRPRPHAGPRP, the “shrunken log2 fold change” value was 0.143.

For RRIRKRPPRLPRPRPRPHAMPRP, the “shrunken log2 fold change” value was -0.0147.

RRIRKRPPRLPRPRPRPHANPRP was tested, and the “shrunken log2 fold change” value was 0.18.

In the case of RRIRKRPPRLPRPRPRPHDFPRP, the “shrunken log2 fold change” value is reported as -0.0488.

With RRIRKRPPRLPRPRPRPHDGPRP the “shrunken log2 fold change” value was 0.0431.

With RRIRKRPPRLPRPRPRPHEDPRP the “shrunken log2 fold change” value was 0.139.

In the case of RRIRKRPPRLPRPRPRPHETPRP, the “shrunken log2 fold change” value is reported as -0.0327.

For RRIRKRPPRLPRPRPRPHFCPRP, the “shrunken log2 fold change” value was -0.167.

RRIRKRPPRLPRPRPRPHFNPRP was tested, and the “shrunken log2 fold change” value was -0.0789.

For RRIRKRPPRLPRPRPRPHHDPRP, the “shrunken log2 fold change” value was -0.121.

In the case of RRIRKRPPRLPRPRPRPHICPRP, the “shrunken log2 fold change” value is reported as 0.00561.

In the case of RRIRKRPPRLPRPRPRPHIHPRP, the “shrunken log2 fold change” value is reported as -0.239.

For RRIRKRPPRLPRPRPRPHKDPRP, the “shrunken log2 fold change” value was -0.113.

With RRIRKRPPRLPRPRPRPHKNPRP the “shrunken log2 fold change” value was 0.207.

With RRIRKRPPRLPRPRPRPHLEPRP the “shrunken log2 fold change” value was -0.0191.

For RRIRKRPPRLPRPRPRPHLFPRP, the “shrunken log2 fold change” value was 0.205.

For RRIRKRPPRLPRPRPRPHMCPRP, the “shrunken log2 fold change” value was -0.066.

With RRIRKRPPRLPRPRPRPHNPPRP the “shrunken log2 fold change” value was -0.0541.

With RRIRKRPPRLPRPRPRPHPNPRP the “shrunken log2 fold change” value was 0.135.

For RRIRKRPPRLPRPRPRPHPQPRP, the “shrunken log2 fold change” value was 0.223.

For RRIRKRPPRLPRPRPRPHPWPRP, the “shrunken log2 fold change” value was 0.353.

With RRIRKRPPRLPRPRPRPHQCPRP the “shrunken log2 fold change” value was -0.0321.

RRIRKRPPRLPRPRPRPHQGPRP was tested, and the “shrunken log2 fold change” value was 0.0968.

RRIRKRPPRLPRPRPRPHRTPRP was tested, and the “shrunken log2 fold change” value was -0.19.

In the case of RRIRKRPPRLPRPRPRPHSMPRP, the “shrunken log2 fold change” value is reported as 0.0496.

With RRIRKRPPRLPRPRPRPHTTPRP the “shrunken log2 fold change” value was 0.0925.

With RRIRKRPPRLPRPRPRPHWEPRP the “shrunken log2 fold change” value was -0.102.

In the case of RRIRKRPPRLPRPRPRPHYEPRP, the “shrunken log2 fold change” value is reported as -0.0316.

With RRIRKRPPRLPRPRPRPHYKPRP the “shrunken log2 fold change” value was -0.446.

With RRIRKRPPRLPRPRPRPIAHPRP the “shrunken log2 fold change” value was 0.143.

With RRIRKRPPRLPRPRPRPICHPRP the “shrunken log2 fold change” value was 0.132.

With RRIRKRPPRLPRPRPRPIDAPRP the “shrunken log2 fold change” value was 0.318.

For RRIRKRPPRLPRPRPRPIDIPRP, the “shrunken log2 fold change” value was 0.00848.

With RRIRKRPPRLPRPRPRPIFLPRP the “shrunken log2 fold change” value was 0.0688.

In the case of RRIRKRPPRLPRPRPRPIIPPRP, the “shrunken log2 fold change” value is reported as 0.152.

RRIRKRPPRLPRPRPRPIKMPRP was tested, and the “shrunken log2 fold change” value was 0.0326.

RRIRKRPPRLPRPRPRPIMCPRP was tested, and the “shrunken log2 fold change” value was -0.0176.

RRIRKRPPRLPRPRPRPIMWPRP was tested, and the “shrunken log2 fold change” value was 0.0599.

For RRIRKRPPRLPRPRPRPINTPRP, the “shrunken log2 fold change” value was -0.0237.

For RRIRKRPPRLPRPRPRPIPWPRP, the “shrunken log2 fold change” value was 0.466.

In the case of RRIRKRPPRLPRPRPRPIQWPRP, the “shrunken log2 fold change” value is reported as -0.00149.

RRIRKRPPRLPRPRPRPIRCPRP was tested, and the “shrunken log2 fold change” value was 0.0497.
